From US20240358855A1
Each block holds one substance with its values, some of them ahead of it.

What was measured:
[1] = molecular target: malondialdehyde modified LDL (UniProt P04114); test: plate binding ELISA on coated MDA-LDL, HEK293 supernatant; fold vs (-) control pCTM395 supernatant
C3b protein [2] = molecular target: C3b protein (UniProt P01024); test: plate binding ELISA on coated C3b, HEK293 supernatant 25 ng/mL; fold vs (-) control pCTM395 supernatant
C3 convertase, C3bBb = C3 convertase, C3bBb (UniProt P01024); test: cell-based or functional assay
C3d ligand = C3d ligand (UniProt P01024); test: plate binding assay on C3d, purified protein; reference
C3b protein [3] = molecular target: C3b protein (UniProt P01024); test: plate binding ELISA on coated C3b, purified protein; reference
CRP = molecular target: T1, CRP (UniProt P02741); test: plate binding ELISA on coated CRP, purified protein; reference
T1 sequence (looked up): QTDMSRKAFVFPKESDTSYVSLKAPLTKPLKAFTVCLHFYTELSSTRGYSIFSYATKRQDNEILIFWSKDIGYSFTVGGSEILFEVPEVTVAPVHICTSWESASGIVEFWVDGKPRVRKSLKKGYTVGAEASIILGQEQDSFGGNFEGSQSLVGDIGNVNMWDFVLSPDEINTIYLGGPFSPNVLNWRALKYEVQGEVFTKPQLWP

[4] = molecular target: malondialdehyde modified LDL (UniProt P04114); test: plate binding ELISA on coated MDA-LDL, purified protein; reference
[5] = molecular target: malondialdehyde modified LDL (UniProt P04114); test: plate binding ELISA on coated MDA-LDL; fold vs (-) control pCTM395 supernatant

CFHT.0 purified recombinant protein (pCTM134), sequence (P08603 other isoform, or with tags, fused parts or gaps limits assumed): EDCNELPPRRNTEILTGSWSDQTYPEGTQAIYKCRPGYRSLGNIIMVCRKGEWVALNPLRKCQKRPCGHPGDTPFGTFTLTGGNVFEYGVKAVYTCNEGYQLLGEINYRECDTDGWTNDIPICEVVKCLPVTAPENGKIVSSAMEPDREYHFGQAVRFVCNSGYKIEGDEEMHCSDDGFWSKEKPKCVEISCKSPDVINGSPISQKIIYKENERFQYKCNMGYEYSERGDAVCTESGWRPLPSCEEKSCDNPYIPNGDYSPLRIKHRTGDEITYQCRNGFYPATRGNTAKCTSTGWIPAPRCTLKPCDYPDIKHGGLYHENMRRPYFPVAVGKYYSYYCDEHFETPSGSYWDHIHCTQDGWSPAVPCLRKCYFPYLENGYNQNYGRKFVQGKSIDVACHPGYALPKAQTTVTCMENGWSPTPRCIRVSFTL
C3b protein, sequence (P01024 23-667 limits assumed, chain 1 of 2): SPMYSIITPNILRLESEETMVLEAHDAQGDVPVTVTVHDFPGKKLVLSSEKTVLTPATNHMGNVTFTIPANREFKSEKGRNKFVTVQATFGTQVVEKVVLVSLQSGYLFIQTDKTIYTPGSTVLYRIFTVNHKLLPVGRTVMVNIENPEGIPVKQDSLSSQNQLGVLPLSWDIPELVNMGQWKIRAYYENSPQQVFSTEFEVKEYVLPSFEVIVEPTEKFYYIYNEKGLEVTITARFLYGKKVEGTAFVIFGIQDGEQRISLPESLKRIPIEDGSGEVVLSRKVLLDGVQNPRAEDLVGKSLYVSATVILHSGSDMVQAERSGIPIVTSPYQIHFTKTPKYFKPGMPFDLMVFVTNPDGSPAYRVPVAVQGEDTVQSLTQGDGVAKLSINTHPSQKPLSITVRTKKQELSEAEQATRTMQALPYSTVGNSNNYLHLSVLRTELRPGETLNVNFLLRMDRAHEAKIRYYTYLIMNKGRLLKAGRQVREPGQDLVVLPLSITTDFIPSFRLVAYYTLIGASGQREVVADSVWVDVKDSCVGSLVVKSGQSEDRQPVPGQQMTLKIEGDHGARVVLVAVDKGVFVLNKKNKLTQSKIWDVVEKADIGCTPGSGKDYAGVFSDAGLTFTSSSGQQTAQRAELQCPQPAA
C3b protein, sequence (P01024 749-1663 limits assumed, chain 2 of 2): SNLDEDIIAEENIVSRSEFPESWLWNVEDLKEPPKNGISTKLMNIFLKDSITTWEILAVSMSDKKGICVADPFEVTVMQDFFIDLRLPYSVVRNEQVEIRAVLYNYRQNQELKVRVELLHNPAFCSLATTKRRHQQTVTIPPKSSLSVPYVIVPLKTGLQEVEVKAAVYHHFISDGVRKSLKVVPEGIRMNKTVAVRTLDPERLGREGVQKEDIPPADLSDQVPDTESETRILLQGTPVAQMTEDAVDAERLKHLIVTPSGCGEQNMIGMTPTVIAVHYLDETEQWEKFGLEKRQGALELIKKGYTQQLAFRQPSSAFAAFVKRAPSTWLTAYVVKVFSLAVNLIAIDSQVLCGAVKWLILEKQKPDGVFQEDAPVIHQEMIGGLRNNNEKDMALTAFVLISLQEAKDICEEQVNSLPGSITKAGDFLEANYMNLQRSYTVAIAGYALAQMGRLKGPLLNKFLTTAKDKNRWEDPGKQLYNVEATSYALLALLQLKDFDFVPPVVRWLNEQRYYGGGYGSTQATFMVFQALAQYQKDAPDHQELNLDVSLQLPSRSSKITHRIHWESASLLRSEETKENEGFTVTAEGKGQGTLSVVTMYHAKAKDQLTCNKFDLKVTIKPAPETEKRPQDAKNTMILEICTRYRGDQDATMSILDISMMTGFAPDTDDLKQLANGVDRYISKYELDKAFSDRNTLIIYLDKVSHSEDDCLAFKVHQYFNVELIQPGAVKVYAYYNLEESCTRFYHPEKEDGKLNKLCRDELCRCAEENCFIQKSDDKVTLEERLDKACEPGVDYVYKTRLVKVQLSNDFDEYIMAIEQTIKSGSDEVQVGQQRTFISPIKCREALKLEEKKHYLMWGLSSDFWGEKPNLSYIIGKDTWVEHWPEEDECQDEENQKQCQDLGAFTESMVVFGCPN
C3d ligand, sequence (P01024 1002-1303 limits assumed): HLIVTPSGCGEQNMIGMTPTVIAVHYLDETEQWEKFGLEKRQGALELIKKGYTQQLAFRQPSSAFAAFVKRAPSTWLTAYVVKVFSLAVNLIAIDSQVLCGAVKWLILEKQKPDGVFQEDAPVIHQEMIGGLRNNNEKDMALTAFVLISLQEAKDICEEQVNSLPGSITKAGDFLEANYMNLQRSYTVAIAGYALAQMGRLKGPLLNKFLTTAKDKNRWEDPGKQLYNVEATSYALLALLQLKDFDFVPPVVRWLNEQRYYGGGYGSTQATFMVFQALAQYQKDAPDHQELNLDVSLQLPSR
C3 convertase, C3bBb, sequence (P01024 23-1663 limits assumed, chain 1 of 2): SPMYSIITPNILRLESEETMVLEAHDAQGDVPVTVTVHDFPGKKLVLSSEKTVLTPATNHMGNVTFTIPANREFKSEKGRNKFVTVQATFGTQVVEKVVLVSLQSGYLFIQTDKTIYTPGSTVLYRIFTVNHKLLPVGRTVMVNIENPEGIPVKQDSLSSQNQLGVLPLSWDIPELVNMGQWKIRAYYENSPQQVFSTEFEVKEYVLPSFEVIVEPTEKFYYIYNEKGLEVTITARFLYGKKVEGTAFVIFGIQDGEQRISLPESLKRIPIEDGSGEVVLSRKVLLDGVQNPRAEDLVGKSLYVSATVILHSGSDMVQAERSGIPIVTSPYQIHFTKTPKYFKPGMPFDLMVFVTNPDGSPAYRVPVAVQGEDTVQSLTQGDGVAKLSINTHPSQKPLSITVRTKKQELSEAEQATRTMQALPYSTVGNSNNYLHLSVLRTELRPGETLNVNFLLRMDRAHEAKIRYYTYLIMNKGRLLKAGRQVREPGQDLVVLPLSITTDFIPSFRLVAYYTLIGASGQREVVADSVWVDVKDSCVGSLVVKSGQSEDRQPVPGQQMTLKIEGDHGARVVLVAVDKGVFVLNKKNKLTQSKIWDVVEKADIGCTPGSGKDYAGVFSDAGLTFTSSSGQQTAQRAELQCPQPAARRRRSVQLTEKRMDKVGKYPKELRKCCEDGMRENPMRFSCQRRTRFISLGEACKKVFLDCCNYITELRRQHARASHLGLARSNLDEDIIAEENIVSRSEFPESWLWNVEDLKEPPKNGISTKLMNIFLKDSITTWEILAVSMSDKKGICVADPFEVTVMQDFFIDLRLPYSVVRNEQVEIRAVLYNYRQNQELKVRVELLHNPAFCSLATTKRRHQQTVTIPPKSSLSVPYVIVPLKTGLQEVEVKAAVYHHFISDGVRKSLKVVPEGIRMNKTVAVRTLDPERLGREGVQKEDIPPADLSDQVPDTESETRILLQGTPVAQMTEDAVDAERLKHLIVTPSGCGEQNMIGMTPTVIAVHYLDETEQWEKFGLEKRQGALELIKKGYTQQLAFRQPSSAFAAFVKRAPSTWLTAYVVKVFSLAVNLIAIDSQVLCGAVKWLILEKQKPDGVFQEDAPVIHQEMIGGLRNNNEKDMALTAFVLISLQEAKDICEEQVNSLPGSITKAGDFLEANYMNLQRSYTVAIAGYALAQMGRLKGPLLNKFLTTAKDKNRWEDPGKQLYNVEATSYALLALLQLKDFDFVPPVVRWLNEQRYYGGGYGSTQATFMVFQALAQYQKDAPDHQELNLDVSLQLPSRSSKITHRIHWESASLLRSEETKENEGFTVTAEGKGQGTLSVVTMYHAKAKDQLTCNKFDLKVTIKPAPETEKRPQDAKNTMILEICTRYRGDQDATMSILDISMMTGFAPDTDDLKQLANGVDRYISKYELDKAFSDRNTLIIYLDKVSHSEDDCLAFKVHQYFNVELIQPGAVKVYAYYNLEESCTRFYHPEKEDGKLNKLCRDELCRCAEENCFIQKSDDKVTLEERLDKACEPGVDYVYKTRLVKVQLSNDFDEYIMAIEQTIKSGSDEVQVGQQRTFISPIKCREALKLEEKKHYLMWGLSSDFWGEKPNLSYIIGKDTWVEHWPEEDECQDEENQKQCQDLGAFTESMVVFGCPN
C3 convertase, C3bBb, sequence (P00751 260-764 limits assumed, chain 2 of 2, further chain): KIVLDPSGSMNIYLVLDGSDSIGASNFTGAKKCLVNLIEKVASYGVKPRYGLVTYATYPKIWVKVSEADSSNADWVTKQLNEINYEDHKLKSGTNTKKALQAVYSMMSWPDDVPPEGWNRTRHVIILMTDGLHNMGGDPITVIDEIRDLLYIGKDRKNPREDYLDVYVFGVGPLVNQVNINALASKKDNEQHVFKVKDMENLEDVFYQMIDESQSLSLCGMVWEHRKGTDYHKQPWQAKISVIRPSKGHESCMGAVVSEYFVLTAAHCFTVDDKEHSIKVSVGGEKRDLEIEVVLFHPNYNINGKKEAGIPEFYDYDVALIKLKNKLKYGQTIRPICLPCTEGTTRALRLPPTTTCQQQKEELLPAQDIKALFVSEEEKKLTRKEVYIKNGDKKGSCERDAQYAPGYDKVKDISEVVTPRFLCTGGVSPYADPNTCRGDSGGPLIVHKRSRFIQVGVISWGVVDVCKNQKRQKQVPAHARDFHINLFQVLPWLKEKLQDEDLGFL
CFHT.0 (pCTM297), sequence (P08603 other isoform, or with tags, fused parts or gaps limits assumed): as the sequence (P08603 other isoform, or with tags, fused parts or gaps limits assumed) above
rCFHT-I62 Protein, sequence (P08603 other isoform, or with tags, fused parts or gaps limits assumed): as above
His-CFHT.0 (pCTM447), sequence (P08603 other isoform, or with tags, fused parts or gaps limits assumed): as above

- Fold Activity at Highest Dose (Relative to Control) [1]: 1.4 fold
- Fold Activity at Highest Dose (Relative to Control) (C3b protein [2]): 1.5 fold
Substance: His-CFHT.0 (pCTM447) (from UniProt P08603 19-445)

- IC50, decay acceleration activity (DAA) assay (C3 convertase, C3bBb): 1.95 nM
- Fold Activity (Compared to CFHT-I62) (C3d ligand): 1 fold
- Fold Activity (Compared to CFHT-I62) (C3b protein [3]): 1 fold
- Fold Activity (Compared to CFHT-I62) (CRP): 1 fold
- Fold Activity (Compared to CFHT-I62) [4]: 1 fold
Substance: CFHT.0 purified recombinant protein (pCTM134) (from UniProt P08603 19-445)

- Fold Activity at Highest Dose (Relative to Control) [1]: 1.5 fold
Substance: CFHT.0 (pCTM297) (from UniProt P08603 19-445)

- Fold Activity at Highest Dose (Relative to Control) [5]: 52 fold
Substance: rCFHT-I62 Protein (from UniProt P08603 19-445)
